Assay results as given in paper PMC12833063.

Biological target: anti-PD-L1×avβ3 dual function antibody (B1451)
Assay: SPR; Biacore T200; B1451 captured at about 35 RU on anti-human IgG (Fc) immobilised on a CM5 chip; human αvβ3 injected, 2-fold dilutions 12.5-400 nM, association 120 s; regeneration 10 mM glycine-HCl pH 1.5; 1:1 binding model

Sequence of human αvβ3 (P06756 31-1048): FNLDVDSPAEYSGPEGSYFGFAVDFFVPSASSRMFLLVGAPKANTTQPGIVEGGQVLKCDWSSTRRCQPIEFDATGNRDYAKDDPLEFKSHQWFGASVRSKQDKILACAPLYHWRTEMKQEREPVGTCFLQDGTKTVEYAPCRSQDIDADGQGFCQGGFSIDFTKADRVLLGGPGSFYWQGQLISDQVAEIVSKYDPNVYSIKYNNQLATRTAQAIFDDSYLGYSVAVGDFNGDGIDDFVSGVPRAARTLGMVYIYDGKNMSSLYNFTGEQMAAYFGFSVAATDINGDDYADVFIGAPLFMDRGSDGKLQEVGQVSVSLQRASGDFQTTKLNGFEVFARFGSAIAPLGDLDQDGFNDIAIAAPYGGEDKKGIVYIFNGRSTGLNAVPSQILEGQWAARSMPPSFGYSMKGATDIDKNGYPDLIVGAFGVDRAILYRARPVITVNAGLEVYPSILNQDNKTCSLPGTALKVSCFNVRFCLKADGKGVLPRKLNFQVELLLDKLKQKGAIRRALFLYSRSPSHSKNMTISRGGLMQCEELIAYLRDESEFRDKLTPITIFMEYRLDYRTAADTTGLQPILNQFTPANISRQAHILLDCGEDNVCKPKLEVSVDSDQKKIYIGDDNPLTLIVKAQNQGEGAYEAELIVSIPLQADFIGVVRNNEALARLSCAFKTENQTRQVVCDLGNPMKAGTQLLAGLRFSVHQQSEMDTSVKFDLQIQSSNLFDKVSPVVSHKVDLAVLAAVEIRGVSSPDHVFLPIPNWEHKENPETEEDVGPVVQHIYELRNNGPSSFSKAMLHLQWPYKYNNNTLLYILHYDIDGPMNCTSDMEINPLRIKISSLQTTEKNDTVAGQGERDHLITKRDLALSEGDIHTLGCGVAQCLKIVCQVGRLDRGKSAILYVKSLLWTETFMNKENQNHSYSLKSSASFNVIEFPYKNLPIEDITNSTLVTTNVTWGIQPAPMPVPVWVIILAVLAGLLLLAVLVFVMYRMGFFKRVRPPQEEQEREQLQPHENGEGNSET
Sequence of human αvβ3 (P05106 27-718): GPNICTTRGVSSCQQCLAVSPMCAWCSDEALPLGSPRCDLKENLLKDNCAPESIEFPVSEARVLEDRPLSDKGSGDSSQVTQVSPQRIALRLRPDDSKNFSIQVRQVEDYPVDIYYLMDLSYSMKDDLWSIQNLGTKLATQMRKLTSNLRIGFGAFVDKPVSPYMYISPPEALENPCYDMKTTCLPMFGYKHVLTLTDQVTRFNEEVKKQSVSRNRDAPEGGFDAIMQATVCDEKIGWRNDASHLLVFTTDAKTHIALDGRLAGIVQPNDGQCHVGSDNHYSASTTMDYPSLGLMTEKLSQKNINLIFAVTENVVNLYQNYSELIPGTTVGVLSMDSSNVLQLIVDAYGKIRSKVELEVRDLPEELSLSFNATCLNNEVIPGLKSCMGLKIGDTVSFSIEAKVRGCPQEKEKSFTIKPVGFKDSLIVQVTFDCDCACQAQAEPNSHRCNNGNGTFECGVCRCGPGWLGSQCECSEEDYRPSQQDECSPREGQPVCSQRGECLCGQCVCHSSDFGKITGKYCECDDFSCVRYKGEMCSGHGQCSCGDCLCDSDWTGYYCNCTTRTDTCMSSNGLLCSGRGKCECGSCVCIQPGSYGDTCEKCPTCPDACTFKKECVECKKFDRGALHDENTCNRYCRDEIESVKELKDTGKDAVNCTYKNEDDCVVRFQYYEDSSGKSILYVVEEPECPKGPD

Kd: 15.5 µM
Substance: human αvβ3 (from UniProt P06756 31-1048; P05106 27-718) (complex)
